Experimental data reported in patent publication EP4034238B1 (Centro Nacional de Investigaciones Cardiovasculares Carlos …, dated 2025).

Legend:
[1] = target: T1, Aldehyde Dehydrogenase 4 Family Member A1 (ALDH4A1), endogenous mouse protein from aorta lysate (mouse, UniProt Q8CHT0 24-562); assay: deep proteomics analysis (IP + mass spectrometry)
T1 construct: Native protein precipitated from mouse aorta lysates; also called ALDH4A1 mitochondrial protein
T1 sequence (looked up): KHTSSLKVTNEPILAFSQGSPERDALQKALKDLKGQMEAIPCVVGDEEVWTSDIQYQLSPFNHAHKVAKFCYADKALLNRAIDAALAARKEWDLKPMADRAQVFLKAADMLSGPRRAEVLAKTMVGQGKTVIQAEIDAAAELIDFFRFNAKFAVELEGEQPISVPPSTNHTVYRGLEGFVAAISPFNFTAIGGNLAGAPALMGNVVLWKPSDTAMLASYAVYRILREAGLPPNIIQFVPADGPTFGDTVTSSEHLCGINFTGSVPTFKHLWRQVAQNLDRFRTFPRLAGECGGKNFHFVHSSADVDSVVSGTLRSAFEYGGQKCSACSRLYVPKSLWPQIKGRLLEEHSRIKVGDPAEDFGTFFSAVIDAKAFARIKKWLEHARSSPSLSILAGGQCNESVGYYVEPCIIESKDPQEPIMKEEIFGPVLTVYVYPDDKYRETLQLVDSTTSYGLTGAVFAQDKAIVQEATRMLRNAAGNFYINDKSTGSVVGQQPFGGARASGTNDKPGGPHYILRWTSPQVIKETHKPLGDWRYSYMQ

[2] = target: T2, ALDH4A1-FLAG protein (mouse ALDH4A1, C-Flag tag) (mouse, UniProt Q8CHT0 24-562, limits assumed); assay: ELISA screen for ALDH4A1 reactivity (mark in Table 1)
T2 construct: Purified on anti-FLAG M2 gel and coated at 5 ug/ml in the ELISAs; used as lysate of transfected HEK293T cells in the IP; also called murine ALDH4A1-FLAG; not shown: C-terminal FLAG tag
T2 sequence (looked up): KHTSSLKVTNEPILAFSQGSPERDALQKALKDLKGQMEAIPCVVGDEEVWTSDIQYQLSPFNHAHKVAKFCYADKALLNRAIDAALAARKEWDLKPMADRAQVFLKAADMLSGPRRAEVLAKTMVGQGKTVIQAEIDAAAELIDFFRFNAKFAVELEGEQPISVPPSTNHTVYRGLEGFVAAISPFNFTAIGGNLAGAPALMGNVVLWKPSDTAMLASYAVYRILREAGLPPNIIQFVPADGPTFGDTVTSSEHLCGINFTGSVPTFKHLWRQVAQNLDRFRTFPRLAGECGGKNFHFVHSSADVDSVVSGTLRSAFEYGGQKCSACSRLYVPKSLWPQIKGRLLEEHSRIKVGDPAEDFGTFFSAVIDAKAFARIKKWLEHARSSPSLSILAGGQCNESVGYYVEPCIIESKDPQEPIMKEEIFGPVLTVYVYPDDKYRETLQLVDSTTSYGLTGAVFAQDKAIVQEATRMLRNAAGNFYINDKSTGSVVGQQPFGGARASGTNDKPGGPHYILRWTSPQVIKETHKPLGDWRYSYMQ

B1: A12 antibody (antibody, human IgG1, V domains shown)
VH: EVQLVESGGDLVKPGGSLKLSCAASGFTFSSYGMSWVRQTPDKRLEWVATISSGGSYTYYPDSVKGRFTISRDNAKNTLYLQMSSLKSEDTAMYYCARPHVVTTPGWYFDVWGTGTTVTVSS
VL: DIVMTQSPATLSVTPGDRVSLSCRASQSISDYLHWYQQKSHESPRLLIKYASQSISGIPSRFSGSGSGSDFTLSINSVEPEDVGVYYCQNGHSFPLTFGAGTKLELK
notes: also called huA12-IgG1
[1]
  binding result: binds
[2]
  binding result: binds
